# Laboratory results taken from patent US20240100174A1, “PROTEIN-PEG INTERACTIONS THAT REDIRECT THE THERMAL UNFOLDING PATHWAY OF PEGYLATED HUMAN GALECTIN-3C” (UNIVERSITY OF FLORIDA RESEARCH FOUNDATION, INCORPORATED, priority 2022, published 2024).
# “And” between values parts separate entries of the source, which are not always exact repeats. Equal entries are not always repeated.
# Test: Variable temperature circular dichroism (CD) thermal unfolding
# Format: physicochemical
# Conditions: for fitted melting temperature (Tm): CD at 220 nm
# Method: CD spectroscopic data were recorded with an Applied Photophysics™ Chirascan spectrophotometer equipped with a Quantum Northwestern Peltier temperature control device and operating with Chirascan v4.7.0 and Pro-Data™ Viewer software. Samples were prepared in PBS at final concentrations of 10 μM. All samples were contained in 2 mm tapered quartz cuvettes, and a temperature probe was inserted through the cuvette cap to monitor the sample temperature in real time. The following parameters were used for constant temperature experiments: CD signal measured in millidegrees, bandwidth of 1.0 nm, wavelength scan from 200-280 nm, step size of 2.0 nm. Spectra were background subtracted against the sample buffer. For thermal unfolding experiments, a linear thermal ramp was applied from 30° C. to 90° C. at 1° C. per minute. All spectra were measured in triplicate, and data were normalized to account for slight differences in protein concentration.
# To calculate melting temperatures of unconjugated Gal3C, Gal3C[T243C], and Gal3C[T243C] variants containing lysine replacements, the normalized data were fit to a Boltzmann sigmoidal function in Origin v8.5. For the data fitting, no parameters were fixed, and the ‘x’ parameter defined as the center of the data was interpreted as the melting temperature (Tm). Variable temperature CD data of PEGylated Gal3C[T243C] and Gal3C[T243C] variants were fit with a sum of two Boltzmann sigmoidal functions, as shown below:
# where ‘A1’, ‘A2’, and ‘A3’ represent three plateaus of the CD signal, ‘dx1’ and ‘dx2’ are the change in x between the plateaus for each melting transition, and ‘x1’ and ‘x2’ are the two Tm values extracted by the fit for the first and second unfolding transitions, respectively. Because the third plateau, A3, occurred at temperatures higher than the experimentally accessible range, this value was estimated. A single wavelength for plotting on the y-axis was selected by calculating the wavelength of greatest CD signal change for each PEGylated construct.
# To record a CD spectrum of Gal3C[T243C] with free PEG, a stock solution of methoxy-PEG (mPEG) in 1×PBS was added immediately before the experiment to a solution containing protein (20 μM, 1 ×PBS) to a final concentration of 22 μM mPEG. All thermal melt parameters were the same as listed in the above described experiments.
# CD spectroscopic data were recorded with an Applied Photophysics Chirascan spectrophotometer equipped with a Quantum Northwestern Peltier temperature control device and operating with Chirascan v4.7.0 and Pro-Data Viewer software, following procedures used in our previous study.^4 Spectra were background subtracted against the sample buffer. For thermal unfolding experiments, a linear thermal ramp was applied from 30° C. to 90° C. at 1° C. per minute with samples concentrated to 10 μM in PBS. All spectra were measured in triplicate, and data were normalized to account for slight differences in protein concentration.
# Full wavelength (200-280 nm) CD spectra for each construct (FIG. 43) were used to calculate a wavelength of greatest change (222 or 224 nm) to create single wavelength CD vs. temperature plots (FIG. 30H-J and FIG. 31F-G). The single wavelength CD signal vs. temperature plot of Gal3C[T243C] used data acquired at 220 nm, which was the wavelength of greatest change for the unmodified protein. To calculate melting temperatures, the normalized data were fit to a Boltzmann sigmoidal function in Origin v8.5. For the data fitting, no parameters were fixed, and the ‘x’ parameter defined as the center of the data was interpreted as the melting temperature (Tm).
molecule,measurement,setting,value
Gal3C[T243C]: Gal3C variant with a single extrinsic cysteine at position 243; SEQ ID NO: 11 (protein) MAGPLIVPYNLPLPGGVVPRMLITILGTVKPNANRIALDFQRGNDVAFHFNPRFNENNRRVIVCNTKLDNNWGREERQSVFPFESGKPFKIQVLVEPDHFKVAVNDAHLLQYNHRVKKLNEISKLGISGDIDLTSASYCMILEHHHHHH,fitted melting temperature (Tm),20 μM protein in the absence of free PEG-OH,57.5 °C
same,fitted melting temperature (Tm),20 μM protein in the presence of 22 μM free PEG-OH,57.7 °C
same,Tm1 ± StDev,"normalized CD at 220 nm vs. temperature, 3 replicates averaged, ramp 30-90° C. at 1° C. per minute",58.1 °C and 58.1 ± 0.5 °C
same,thermal unfolding behaviour / formation of unfolding intermediate,"result in words, for polymer conjugates the selected SEC fractions",single cooperative unfolding transition
same,Tm / Tm1,"values of Summary of Results, Tm for unconjugated protein, Tm1 for PEG conjugate",58.0 °C
